In publication PMC10850481, “Structural basis for the oligomerization-facilitated NLRP3 activation” (Nature Communications, 2024):

B1: human NEK7 with kinase mutations K63M/K64M (NEK7_(K63M/K64M)) (enzyme)
chain: not shown
notes: human NEK7 (UniProt Q8TDX7) with kinase mutations K63M/K64M; also called NIMA-related kinase 7; 6His.SUMO.NEK7_(K63M/K64M); source: E. coli BL21(DE3), purified (HisPur Ni resin, Ulp1 cleavage, HisTrap flow-through, Superdex 200); not shown: His6, N-terminal, cleaved; SUMO, N-terminal, cleaved
B2: PYD-deleted human NLRP3 (NLRP3_(ΔPYD)), from the construct FLAG.6His.MBP.TEV.CfaC.NLRP3_130.K131F.M132N-1036 (domain or fragment, UniProt Q96P20 130-1036, looked up)
chain: CFNKKDYRKKYRKYVRSRFQCIEDRNARLGESVSLNKRYTRLRLIKEHRSQQEREQELLAIGKTKTCESPVSPIKMELLFDPDDEHSEPVHTVVFQGAAGIGKTILARKMMLDWASGTLYQDRFDYLFYIHCREVSLVTQRSLGDLIMSCCPDPNPPIHKIVRKPSRILFLMDGFDELQGAFDEHIGPLCTDWQKAERGDILLSSLIRKKLLPEASLLITTRPVALEKLQHLLDHPRHVEILGFSEAKRKEYFFKYFSDEAQARAAFSLIQENEVLFTMCFIPLVCWIVCTGLKQQMESGKSLAQTSKTTTAVYVFFLSSLLQPRGGSQEHGLCAHLWGLCSLAADGIWNQKILFEESDLRNHGLQKADVSAFLRMNLFQKEVDCEKFYSFIHMTFQEFFAAMYYLLEEEKEGRTNVPGSRLKLPSRDVTVLLENYGKFEKGYLIFVVRFLFGLVNQERTSYLEKKLSCKISQQIRLELLKWIEVKAKAKKLQIQPSQLELFYCLYEMQEEDFVQRAMDYFPKIEINLSTRMDHMVSSFCIENCHRVESLSLGFLHNMPKEEEEEEKEGRHLDMVQCVLPSSSHAACSHGLVNSHLTSSFCRGLFSVLSTSQSLTELDLSDNSLGDPGMRVLCETLQHPGCNIRRLWLGRCGLSHECCFDISLVLSSNQKLVELDLSDNALGDFGIRLLCVGLKHLLCNLKKLWLVSCCLTSACCQDLASVLSTSHSLTRLYVGENALGDSGVAILCEKAKNPQCNLQKLGLVNSGLTSVCCSALSSVLSTNQNLTHLYLRGNTLGDKGIKLLCEGLLHPDCKLQVLELDNCNLTSHCCWDLSTLLTSSQSLRKLSLGNNDLGDLGVMMFCEVLKQQSCLLQNLGLSEMYFNYETKSALETLQEEKPELTVVFEPSW
notes: human NLRP3 (UniProt Q96P20), residues 130-1036 (NACHT and LRR, PYD deleted) with K131F and M132N next to the CfaC intein fragment; The same protomer forms an octamer (with ATP, no MCC950), a hexamer (with ATP and MCC950) and a back-to-back dimer (with NEK7, ATP and MCC950); The second construct, MBP.TEV.NLRP3_130_1036, was used only for the ATPase and nanoDSF assays; also called …

Key:
[1] = target: B2; assay: cryo-EM structure; NLRP3_(ΔPYD) with ATP, MCC950 (10 fold molar excess) and NEK7_(K63M/K64M) (2 fold molar excess); Superdex 200 peak fractions; C2 symmetry imposed; closed NEK7/NLRP3 dimer; conditions: both partners purified
[2] = target: the molecule itself; assay: cryo-EM structure; NLRP3_(ΔPYD) with ATP and MCC950; D3 symmetry imposed; closed hexamer, seen in the dataset without NEK7 and as one of two populations in the dataset with NEK7
[3] = target: the molecule itself; assay: cryo-EM structure; NLRP3_(ΔPYD) with ATP, MCC950 (10 fold molar excess) and NEK7_(K63M/K64M) (2 fold molar excess); Superdex 200 peak fractions; C2 symmetry imposed; closed NEK7/NLRP3 dimer
[4] = target: the molecule itself; assay: cryo-EM structure; NLRP3_(ΔPYD) with ATP, without MCC950; applied to grids immediately after SEC (Superose 6, 25 mM HEPES pH 7.4, 0.4 M NaCl, 0.2% CHAPS, 0.2 mM TCEP); D2 symmetry imposed; open octamer

Binder	binding result [1]	stoichiometry N [2]	stoichiometry N [3]	stoichiometry N [4]
B1	binds	–	–	–
B2	–	6	2	8
